US20200407456A1 (published 2020)
Each block holds one binder with its values, some of them ahead of it.

Molecular target: recombinant human CD137-ECD-Fc (APBio Inc.) (human, UniProt Q07011 24-186)
Experiment: ELISA

Sequence of recombinant human CD137-ECD-Fc (APBio Inc.) (Q07011 24-186): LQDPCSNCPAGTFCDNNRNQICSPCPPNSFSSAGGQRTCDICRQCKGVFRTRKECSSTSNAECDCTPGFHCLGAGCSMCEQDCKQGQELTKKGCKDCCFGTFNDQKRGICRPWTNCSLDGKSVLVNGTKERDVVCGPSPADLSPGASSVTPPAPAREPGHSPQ

EC50: 0.184 nM
B1: anti-CD137 antibody clone 54 (antibody, V domains shown)
VH: QVQLVQSGAEVKKPGSTVKVSCKASGGTFSSYAISWVRQAPGQGLEWMGRIIPILGIANYAQKFQGRVTITADKSTSTAYMELSSLRSEDTAVYYCASPPYYDSSGYYPLGAFDIWGQGTMVTVSS
VL: SYELTQPPSVSVSPGQTASITCSGDKLGEKYASWYQQKAGQSPILVIYQDSKRPSGIPERFSGSNSGNTATLTISGLQAGDEADYYCQAWDGSSTYVFGTGTKVTVFG

EC50: 0.151 nM
B2: anti-CD137 antibody clone 31 (antibody, V domains shown)
VH: not shown
VL: QSALTQPASVSGSPGQSITISCTGTSSDVGAYNFVSWYQQRPGKAPELMIYDVSDRPSGVSNRFSGSKSGNTASLTISGLQTEDEADYYCSSYTSSITRYVFGTGTKVTVLG
